5 molecules from article PMC10563445, “Extracellular microRNA 130b‐3p inhibits eCIRP‐induced inflammation” (EMBO Reports, 2019) can be followed below.

Data set [1] has as its target T1, human TLR4/MD2 complex (human, UniProt O00206 24-631; Q9Y6Y9 19-160).
T1 construct: Toll-like receptor 4 (TLR4), human, recombinant, in the bought TLR4/MD2 complex; Myeloid differentiation factor 2 (MD2), human, recombinant, in the bought TLR4/MD2 complex; also called TLR4 and myeloid differentiation factor 2 (MD2) complex; source: bought: R&D Systems
The experiment in a line: SPR; BIAcore T200; human TLR4/MD2 complex immobilised on a CM5 chip; rmCIRP (31.25-1,000 nM) incubated with a constant 50 nM miRNA 130b-3p mimic and injected as analyte; 1X HBS-EP; 1:1 binding model. The note with it: both partners purified.

In data set [2] the target is T1, human TLR4/MD2 complex. The experiment in a line: SPR; BIAcore T200; human TLR4/MD2 complex immobilised on a CM5 chip; rmCIRP (31.25-1,000 nM) incubated with a constant 100 nM miRNA 130b-3p mimic and injected as analyte; 1X HBS-EP; 1:1 binding model. Conditions: both partners purified.
Data set [3] concerns the target T1, human TLR4/MD2 complex. The experiment in a line: SPR; BIAcore T200; human TLR4/MD2 complex immobilised on a CM5 chip; rmCIRP (31.25-500 nM) injected alone as analyte; running buffer 1X HBS-EP; 1:1 binding model. Conditions: both partners purified.
Data set [4] has as its target T2, rmCIRP (recombinant murine cold-inducible RNA-binding protein) (mouse, UniProt P60824 1-172).
T2 sequence: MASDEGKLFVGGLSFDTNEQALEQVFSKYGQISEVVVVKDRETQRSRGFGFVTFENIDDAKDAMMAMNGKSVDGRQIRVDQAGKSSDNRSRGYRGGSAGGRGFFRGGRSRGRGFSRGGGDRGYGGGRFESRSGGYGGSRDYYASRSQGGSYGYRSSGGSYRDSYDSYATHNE
The experiment in a line: SPR; RNA immobilized on SA chip; SPR (BIAcore T200), 1X HBS-EP running buffer; rmCIRP 7.8-500 nM over RNA; pH and temperature not stated. Conditions: single strand.

Another data set addresses TLR4/MD2 complex (human, UniProt O00206;Q9Y6Y9 24-631;19-160). The experiment in a line: SPR; RNA analyte 31.25-1000 nM, no rmCIRP; SPR (BIAcore T200), 1X HBS-EP running buffer; rmCIRP 7.8-500 nM over RNA; pH and temperature not stated. Conditions: protein: commercial.
Data set [5] has as its target T2, rmCIRP (recombinant murine …). The experiment in a line: SPR; RNA immobilized on SA chip; text misprints 8.4 x 10^8 M; SPR (BIAcore T200), 1X HBS-EP running buffer; rmCIRP 7.8-500 nM over RNA; pH and temperature not stated. Conditions: single strand.

T1 sequence (O00206 24-631, chain 1 of 2): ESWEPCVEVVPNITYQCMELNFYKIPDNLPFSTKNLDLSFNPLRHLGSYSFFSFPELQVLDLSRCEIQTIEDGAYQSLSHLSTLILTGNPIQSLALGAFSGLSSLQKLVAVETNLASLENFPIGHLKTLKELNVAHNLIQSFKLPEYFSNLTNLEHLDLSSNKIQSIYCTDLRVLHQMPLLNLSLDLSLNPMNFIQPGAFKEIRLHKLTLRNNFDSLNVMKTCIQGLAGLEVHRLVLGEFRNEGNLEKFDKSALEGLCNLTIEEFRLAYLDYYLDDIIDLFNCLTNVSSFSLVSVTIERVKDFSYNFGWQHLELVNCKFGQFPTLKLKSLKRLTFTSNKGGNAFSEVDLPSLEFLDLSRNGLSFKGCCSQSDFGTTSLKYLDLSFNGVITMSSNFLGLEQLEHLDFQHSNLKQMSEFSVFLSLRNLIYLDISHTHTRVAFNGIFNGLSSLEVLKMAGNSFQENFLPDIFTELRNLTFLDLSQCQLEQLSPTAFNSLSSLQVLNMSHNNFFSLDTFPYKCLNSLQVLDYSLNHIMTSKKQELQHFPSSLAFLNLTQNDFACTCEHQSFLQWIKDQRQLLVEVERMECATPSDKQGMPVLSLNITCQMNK
T1 sequence (Q9Y6Y9 19-160, chain 2 of 2): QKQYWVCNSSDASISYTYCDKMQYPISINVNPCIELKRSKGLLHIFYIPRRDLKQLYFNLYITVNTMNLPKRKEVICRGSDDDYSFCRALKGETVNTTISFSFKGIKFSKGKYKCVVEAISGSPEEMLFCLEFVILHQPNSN
Sequence of TLR4/MD2 complex (O00206 24-631, chain 1 of 2): as the sequence (O00206 24-631, chain 1 of 2) above
Sequence of TLR4/MD2 complex (Q9Y6Y9 19-160, chain 2 of 2): as the sequence (Q9Y6Y9 19-160, chain 2 of 2) above

B1: recombinant murine cold-inducible RNA-binding protein (natural protein, mouse, UniProt P60824 1-172, looked up)
chain: MASDEGKLFVGGLSFDTNEQALEQVFSKYGQISEVVVVKDRETQRSRGFGFVTFENIDDAKDAMMAMNGKSVDGRQIRVDQAGKSSDNRSRGYRGGSAGGRGFFRGGRSRGRGFSRGGGDRGYGGGRFESRSGGYGGSRDYYASRSQGGSYGYRSSGGSYRDSYDSYATHNE
notes: also called rmCIRP; recombinant mouse (rm) CIRP
As for B1, the “KD with 50 nM miRNA 130b-3p mimic” value with human TLR4/MD2 complex [1] turned out to be 420 nM. Moreover, the “KD with 100 nM miRNA 130b-3p mimic” value with human TLR4/MD2 complex [2] is 40 µM. The molecule also registered a Kd in the data set with human TLR4/MD2 complex [3] of 116.5 ± 0.8 nM.
CAGUGCAAUGAUGAAAGGGCAU (ssRNA) [miRNA 130b-3p mimic, biotinylated]: the Kd in data set [4] was found to be 50.1 ± 3 nM.
For CAGUGCAAUGAUGAAAGGGCAU (ssRNA) [miRNA 130b-3p mimic (analyte)], in the data set with TLR4/MD2 complex, the binding result is on record as “no binding”.
For the molecule CAGUGGUUUUACCCUAUGGUAG (ssRNA) [miRNA 140 mimic (140-5p), biotinylated], in data set [4], the Kd was 160 ± 1.9 nM.
For the molecule UUCACAGUGGCUAAGUUCUGC (ssRNA) [miRNA 27b mimic (27b-3p), biotinylated], the Kd in data set [5] stood at 83.5 ± 3.1 nM.
